Experimental data from the supplement of paper PMC9112550, “Optimization of the antimicrobial peptide Bac7 by deep mutational scanning” (BMC Biology, 2022).

Tested on: Escherichia coli TOP10
Assay: shrunken log2 fold change of peptide-encoding DNA abundance (4.5 h post-induction vs induction); higher = less antimicrobial activity (less host growth inhibition)
Details: time post-induction: 4.5 h; library: site-saturation at positions 5, 18, 19, 20
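Also: peptides expressed intracellularly from a pBAD plasmid library in pooled LB shake-flask culture, induced with 0.3% L-arabinose, DNA abundance read by NGS, three biological replicates, DESeq2 with apeglm shrinkage.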

In order of falling “shrunken log2 fold change” value:
1. RRIRQRPPRLPRPRPRPVLNPRP  2.89
2. RRIRNRPPRLPRPRPRPAAIPRP  1.95
3. RRIRMRPPRLPRPRPRPSEAPRP  1.95
4. RRIRMRPPRLPRPRPRPDRNPRP  1.4
5. RRIRARPPRLPRPRPRPRKWPRP  1.28
6. RRIRGRPPRLPRPRPRPWDWPRP  1.2
7. RRIRWRPPRLPRPRPRPPDWPRP  1.19
8. RRIRSRPPRLPRPRPRPIFPPRP  1.04
9. RRIRDRPPRLPRPRPRPGLEPRP  1
10. RRIRMRPPRLPRPRPRPKWSPRP  0.894
11. RRIRCRPPRLPRPRPRPSYHPRP  0.811
12. RRIRMRPPRLPRPRPRPALNPRP  0.759
13. RRIRRRPPRLPRPRPRPMRWPRP  0.638
14. RRIRFRPPRLPRPRPRPTAEPRP  0.593
15. RRIRCRPPRLPRPRPRPTQMPRP  0.565
16. RRIRKRPPRLPRPRPRPGPFPRP  0.56
17. RRIRGRPPRLPRPRPRPFFDPRP  0.541
18. RRIRTRPPRLPRPRPRPPGCPRP  0.528
19. RRIRNRPPRLPRPRPRPLPPPRP  0.5
20. RRIRRRPPRLPRPRPRPACYPRP  0.488
21. RRIRGRPPRLPRPRPRPTNWPRP  0.485
22. RRIRWRPPRLPRPRPRPATEPRP  0.479
23. RRIRTRPPRLPRPRPRPRDGPRP  0.456
24. RRIRLRPPRLPRPRPRPAARPRP  0.453
25. RRIRGRPPRLPRPRPRPPIPPRP  0.449
26. RRIRDRPPRLPRPRPRPAAKPRP  0.359
27. RRIRARPPRLPRPRPRPKPIPRP  0.319
28. RRIRQRPPRLPRPRPRPRCPPRP  0.313
29. RRIRSRPPRLPRPRPRPPVCPRP  0.311
30. RRIRTRPPRLPRPRPRPEAGPRP  0.286
31. RRIRLRPPRLPRPRPRPMRIPRP  0.269
32. RRIRVRPPRLPRPRPRPGGCPRP  0.261
33. RRIRNRPPRLPRPRPRPMTPPRP  0.244
34. RRIRRRPPRLPRPRPRPEPSPRP  0.228
35. RRIRWRPPRLPRPRPRPWHMPRP  0.219
36. RRIRSRPPRLPRPRPRPTLPPRP  0.212
37. RRIRCRPPRLPRPRPRPKCQPRP  0.201
38. RRIRPRPPRLPRPRPRPLADPRP  0.188
39. RRIRLRPPRLPRPRPRPAWEPRP  0.185
40. RRIRPRPPRLPRPRPRPRDRPRP  0.18
41. RRIRQRPPRLPRPRPRPKCAPRP  0.16
42. RRIRMRPPRLPRPRPRPNKEPRP  0.127
43. RRIRGRPPRLPRPRPRPQIVPRP  0.12
44. RRIRPRPPRLPRPRPRPRKSPRP  0.112
45. RRIRDRPPRLPRPRPRPPELPRP  0.107
46. RRIRWRPPRLPRPRPRPHEIPRP  0.0984
47. RRIRMRPPRLPRPRPRPRESPRP  0.09
48. RRIRWRPPRLPRPRPRPAFIPRP  0.0835
49. RRIRIRPPRLPRPRPRPKEPPRP  0.0805
50. RRIRGRPPRLPRPRPRPPNFPRP  0.0696
51. RRIRKRPPRLPRPRPRPNEMPRP  0.0671
52. RRIRERPPRLPRPRPRPNGAPRP  0.0556
53. RRIRYRPPRLPRPRPRPCTNPRP  0.0527
54. RRIRSRPPRLPRPRPRPIWEPRP  0.0462
55. RRIRHRPPRLPRPRPRPQGIPRP  0.0372
56. RRIRFRPPRLPRPRPRPKRGPRP  0.0365
57. RRIRLRPPRLPRPRPRPFKKPRP  0.0344
58. RRIRQRPPRLPRPRPRPMMWPRP  0.0311
59. RRIRQRPPRLPRPRPRPGIWPRP  0.0216
60. RRIRTRPPRLPRPRPRPTLVPRP  0.0196
61. RRIRERPPRLPRPRPRPCKKPRP  0.0187
62. RRIRIRPPRLPRPRPRPQNFPRP  0.0159
63. RRIRRRPPRLPRPRPRPQINPRP  0.0135
64. RRIRWRPPRLPRPRPRPQRNPRP  0.0121
65. RRIRNRPPRLPRPRPRPKAYPRP  0.0121
66. RRIRIRPPRLPRPRPRPMYMPRP  0.00884
67. RRIRLRPPRLPRPRPRPWTYPRP  0.0062
68. RRIRWRPPRLPRPRPRPWQFPRP  0.00487
69. RRIRERPPRLPRPRPRPTEFPRP  0.000688
70. RRIRFRPPRLPRPRPRPEAMPRP  -0.000462
71. RRIRDRPPRLPRPRPRPIKPPRP  -0.00115
72. RRIRLRPPRLPRPRPRPYGEPRP  -0.0013
73. RRIRERPPRLPRPRPRPMYMPRP  -0.0017
74. RRIRVRPPRLPRPRPRPMECPRP  -0.00192
75. RRIRDRPPRLPRPRPRPVKSPRP  -0.00931
76. RRIRDRPPRLPRPRPRPWAFPRP  -0.01
77. RRIRMRPPRLPRPRPRPQSGPRP  -0.0103
78. RRIRERPPRLPRPRPRPHFYPRP  -0.0121
79. RRIRNRPPRLPRPRPRPRTTPRP  -0.0126
80. RRIRIRPPRLPRPRPRPYHGPRP  -0.0135
81. RRIRMRPPRLPRPRPRPFPRPRP  -0.0223
82. RRIRDRPPRLPRPRPRPCGTPRP  -0.0281
83. RRIRGRPPRLPRPRPRPWRHPRP  -0.0287
84. RRIRERPPRLPRPRPRPNCQPRP  -0.0295
85. RRIRYRPPRLPRPRPRPSQGPRP  -0.031
86. RRIRCRPPRLPRPRPRPPVNPRP  -0.0382
87. RRIRCRPPRLPRPRPRPDGYPRP  -0.0404
88. RRIRNRPPRLPRPRPRPIDLPRP  -0.0431
89. RRIRCRPPRLPRPRPRPHENPRP  -0.0452
90. RRIRLRPPRLPRPRPRPHSYPRP  -0.0533
91. RRIRFRPPRLPRPRPRPQMEPRP  -0.059
92. RRIRVRPPRLPRPRPRPEGIPRP  -0.0615
93. RRIRRRPPRLPRPRPRPPMEPRP  -0.0681
94. RRIRLRPPRLPRPRPRPMQCPRP  -0.0717
95. RRIRPRPPRLPRPRPRPCWCPRP  -0.0719
96. RRIRFRPPRLPRPRPRPTHRPRP  -0.0781
97. RRIRFRPPRLPRPRPRPMLVPRP  -0.0924
98. RRIRERPPRLPRPRPRPDSTPRP  -0.0931
99. RRIRLRPPRLPRPRPRPETCPRP  -0.0935
100. RRIRDRPPRLPRPRPRPIFKPRP  -0.118
101. RRIRWRPPRLPRPRPRPTKCPRP  -0.121
102. RRIRHRPPRLPRPRPRPQIDPRP  -0.123
103. RRIRGRPPRLPRPRPRPFMGPRP  -0.123
104. RRIRQRPPRLPRPRPRPQTGPRP  -0.137
105. RRIRIRPPRLPRPRPRPMVMPRP  -0.138
106. RRIRSRPPRLPRPRPRPHDRPRP  -0.138
107. RRIRCRPPRLPRPRPRPSQNPRP  -0.141
108. RRIRNRPPRLPRPRPRPCPWPRP  -0.141
109. RRIRARPPRLPRPRPRPNMMPRP  -0.142
110. RRIRWRPPRLPRPRPRPHDAPRP  -0.145
111. RRIRSRPPRLPRPRPRPQQCPRP  -0.146
112. RRIRERPPRLPRPRPRPTTVPRP  -0.147
113. RRIRVRPPRLPRPRPRPHWVPRP  -0.152
114. RRIRWRPPRLPRPRPRPKNYPRP  -0.152
115. RRIRSRPPRLPRPRPRPVNQPRP  -0.155
116. RRIRIRPPRLPRPRPRPANRPRP  -0.159
117. RRIRVRPPRLPRPRPRPRGTPRP  -0.164
118. RRIRMRPPRLPRPRPRPAYSPRP  -0.166
119. RRIRPRPPRLPRPRPRPNKMPRP  -0.17
120. RRIRSRPPRLPRPRPRPIGHPRP  -0.171
121. RRIRHRPPRLPRPRPRPKDQPRP  -0.172
122. RRIRHRPPRLPRPRPRPYIPPRP  -0.194
123. RRIRCRPPRLPRPRPRPCCHPRP  -0.204
124. RRIRTRPPRLPRPRPRPGMMPRP  -0.211
125. RRIRNRPPRLPRPRPRPLFFPRP  -0.217
126. RRIRDRPPRLPRPRPRPTYRPRP  -0.224
127. RRIRNRPPRLPRPRPRPCMGPRP  -0.256
128. RRIRQRPPRLPRPRPRPCAHPRP  -0.256
129. RRIRIRPPRLPRPRPRPLVHPRP  -0.266
130. RRIRCRPPRLPRPRPRPHACPRP  -0.281
131. RRIRRRPPRLPRPRPRPNNLPRP  -0.293
132. RRIRERPPRLPRPRPRPVEFPRP  -0.309
133. RRIRFRPPRLPRPRPRPMNSPRP  -0.325
134. RRIRKRPPRLPRPRPRPYEAPRP  -0.325
135. RRIRCRPPRLPRPRPRPNQHPRP  -0.337
136. RRIRFRPPRLPRPRPRPDQHPRP  -0.34
137. RRIRDRPPRLPRPRPRPSSPPRP  -0.341
138. RRIRERPPRLPRPRPRPKDNPRP  -0.342
139. RRIRVRPPRLPRPRPRPHSHPRP  -0.348
140. RRIRCRPPRLPRPRPRPQILPRP  -0.354
141. RRIRFRPPRLPRPRPRPNSYPRP  -0.372
142. RRIRHRPPRLPRPRPRPGECPRP  -0.377
143. RRIRWRPPRLPRPRPRPIQIPRP  -0.378
144. RRIRHRPPRLPRPRPRPIMAPRP  -0.383
145. RRIRCRPPRLPRPRPRPVHNPRP  -0.415
146. RRIRYRPPRLPRPRPRPTHHPRP  -0.509
147. RRIRSRPPRLPRPRPRPYALPRP  -0.613
148. RRIRQRPPRLPRPRPRPKNNPRP  -0.616
149. RRIRVRPPRLPRPRPRPCHVPRP  -0.859
150. RRIRERPPRLPRPRPRPYRTPRP  -1.15
